Data taken from US20170182124A1, “FGF21 Derivatives and Uses Thereof” (Novo Nordisk A/S, priority 2014, published 2017).
Where two headings read alike, the source gives them in different places.

Molecular target: FGF receptor/BKL complex
Assay: FGF receptor potency in an Erk phosphorylation assay in HEK293 overexpressing human BKL
Type: cell-based
Details: HEK293/BKL cells, pERK after 12 minutes
Description: In order to test the binding of the FGF21 derivatives to albumin, the assay was performed in the absence of serum albumin as well as in the presence of human serum albumin (HSA) (0.1% final assay concentration). An increase in EC50 value (decrease in potency) in the presence of serum albumin for FGF21 derivatives would indicate binding to serum albumin and represents a method to predict a protracted pharmacokinetic profile of the test substance in animal models. MetFGF21 (SEQ ID NO:2) is included for reference.
HEK293 cells endogenously express several FGF receptors, including FGFR1c, FGFR3c and FGFR4. These cells are unresponsive to FGF21 until transfected with the co-receptor beta-klotho (BKL). Activation of the FGF receptor/BKL complex leads to activation of the MAPK/ERK signalling pathway and phosphorylation of ERK. The level of phosphorylated ERK (pERK) at a given time point increases with increasing concentrations of FGF21. As described below the level of pERK is measured after 12 minutes of stimulation with a range of FGF21 analogue concentrations.
The HEK293/beta-klotho cells are seeded with 30.000 cells/well in 96 well plates in DMEM (BioWhittaker #BE12-604F/U1), supplemented with 10% FCS (Gibco #16140-071), 1% penicillin/streptomycin (Gibco #15140), 100 µg/ml Hygromycin B, (Calbiochem, # 400052). Two days later and 2 hours before addition of compound the cell medium is exchanged with 100 ∞l basal medium (DMEM (BioWhittaker #BE12-604F/U1)). The FGF21 analogues are diluted in assay medium (DMEM (BioWhittaker #BE12-604F/U1) supplemented with 0.02% Tween20), warmed to 37° C., added to the cells (100 μl) and incubated at 37° C. for 12 minutes. The FGF21 derivatives were also tested in the presence of 0.1% HSA (Sigma—A1887). All medium is quickly removed and 50 μl lysis buffer is added pr. well. The plate is shaken for 5 minutes and the lysate is ready for measurement of pERK. pERK is measured in 384 well plates with the AlphaScreen SureFire kit (PerkinElmer #TGRES10K). This kit is based on ERK and pERK specific antibodies coupled to donor and acceptor beads. The presence of pERK will bring acceptor and donor beads in close proximity and a signal is generated that is read on EnVision. The data are analysed using GraphPad Prism and the potency of the FGF21 proteins is described as absolute EC50 value.

[1] = presence of 0.1% HSA, read-out: EC50 (0.1% HSA)

Sequence of FGF receptor/BKL complex (Q86Z14 whole entry, one chain of several): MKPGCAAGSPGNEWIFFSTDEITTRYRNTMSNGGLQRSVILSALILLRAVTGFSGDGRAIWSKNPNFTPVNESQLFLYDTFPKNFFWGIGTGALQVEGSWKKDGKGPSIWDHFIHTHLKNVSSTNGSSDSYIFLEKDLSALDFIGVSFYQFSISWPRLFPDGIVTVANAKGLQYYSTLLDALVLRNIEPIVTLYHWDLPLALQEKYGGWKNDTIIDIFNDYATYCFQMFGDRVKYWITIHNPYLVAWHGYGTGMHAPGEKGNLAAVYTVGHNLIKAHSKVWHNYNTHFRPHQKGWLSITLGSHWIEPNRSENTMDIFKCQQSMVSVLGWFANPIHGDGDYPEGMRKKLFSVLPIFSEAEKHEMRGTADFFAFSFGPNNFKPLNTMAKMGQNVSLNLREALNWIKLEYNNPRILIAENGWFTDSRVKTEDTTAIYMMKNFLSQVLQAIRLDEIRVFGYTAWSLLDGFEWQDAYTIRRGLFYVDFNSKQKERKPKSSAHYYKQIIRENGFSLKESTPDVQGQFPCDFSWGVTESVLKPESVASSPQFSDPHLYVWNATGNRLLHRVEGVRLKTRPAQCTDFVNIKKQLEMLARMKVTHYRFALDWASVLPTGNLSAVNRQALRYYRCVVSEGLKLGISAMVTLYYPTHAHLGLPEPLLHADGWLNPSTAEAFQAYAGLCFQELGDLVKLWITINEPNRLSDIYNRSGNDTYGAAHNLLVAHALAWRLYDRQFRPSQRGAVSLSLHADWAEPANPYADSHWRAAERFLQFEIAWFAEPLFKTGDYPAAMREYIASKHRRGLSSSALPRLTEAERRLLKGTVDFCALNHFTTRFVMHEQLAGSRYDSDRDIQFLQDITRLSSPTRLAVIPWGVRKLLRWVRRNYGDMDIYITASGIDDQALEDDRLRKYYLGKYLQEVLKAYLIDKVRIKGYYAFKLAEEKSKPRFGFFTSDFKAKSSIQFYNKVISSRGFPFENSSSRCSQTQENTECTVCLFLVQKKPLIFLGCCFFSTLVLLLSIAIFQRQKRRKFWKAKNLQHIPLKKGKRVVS

B1: 20-[[(1S)-4-[[(1S)-4-[2-[2-[2-[2-[2-[2-[[(1S)-5-acetamido-1-carboxy-pentyl]amino]-2-oxo-ethoxy]ethoxy]ethylamino]-2-oxo-ethoxy]ethoxy]ethylamino]-1-carboxy-4-oxo-butyl]amino]-1-carboxy-4-oxo-butyl]ami … (protein)
chain: HPIPDSSPLLQFGGQVRQRYLYTDDAQQTEAHLEIREDGTVGGAADQSPESLLQLKALKPGVIQILGVKTSRFLCQRPDGALYGSLHFDPEACSFRELLLEDGYNVYQSEAHGLPLHLPGQKSPHRDPAPRGPARFLPLPGLPPALPEPPGILAPQPPDVGSSDPLSLVGPSQGRSPSYCS
- EC50 (absence of HSA, read-out: EC50): 10.3 nM
- EC50 [1]: 65.5 nM

B2: 12-[[4-[[(1S)-4-[2-[2-[2-[2-[2-[2-(2-acetamidoethylamino)-2-oxo-ethoxy]ethoxy]ethylamino]-2-oxo-ethoxy]ethoxy]ethylamino]-1-carboxy-4-oxo-butyl]carbamoyl]cyclohexyl]methylamino]-12-oxo-dodecanoic … (protein)
chain: HPIPDSSPLLQFGGQVRQRYLYTDDAQQTEAHLEIREDGTVGGAADQSPESLLQLKALKPGVIQILGVKTSRFLCQRPDGALYGSLHFDPEACSFRELLLEDGYNVYQSEAHGLPLHLPGQKSPHRDPAPRGPARFLPLPGLPPALPEPPGILAPQPPDVGSSDPLSLVGPSQGRSPSYCS
- EC50 (absence of HSA, read-out: EC50): 4 nM
- EC50 [1]: 4.7 nM

B3: 12-[[(1S)-4-[2-[2-[2-[2-[2-[2-[[(1S)-5-acetamido-1-carboxy-pentyl]amino]-2-oxo-ethoxy]ethoxy]ethylamino]-2-oxo-ethoxy]ethoxy]ethylamino]-1-carboxy-4-oxo-butyl]amino]-12-oxo-dodecanoic … (protein)
chain: HPIPDSSPLLQFGGQVRQRYLYTDDAQQTEAHLEIREDGTVGGAADQSPESLLQLKALKPGVIQILGVKTSRFLCQRPDGALYGSLHFDPEACSFRELLLEDGYNVYQSEAHGLPLHLPGQKSPHRDPAPRGPARFLPLPGLPPALPEPPGILAPQPPDVGSSDPLSLVGPSQGRSPSYCS
- EC50 (absence of HSA, read-out: EC50): 8.4 nM
- EC50 [1]: 3.4 nM

B4: 16-[[4-[[(1S)-4-[2-[2-[2-[2-[2-[2-(2-acetamidoethylamino)-2-oxo-ethoxy]ethoxy]ethylamino]-2-oxo-ethoxy]ethoxy]ethylamino]-1-carboxy-4-oxo-butyl]carbamoyl]cyclohexyl]methylamino]-16-oxo-hexadecanoic … (protein)
chain: HPIPDSSPLLQFGGQVRQRYLYTDDAQQTEAHLEIREDGTVGGAADQSPESLLQLKALKPGVIQILGVKTSRFLCQRPDGALYGSLHFDPEACSFRELLLEDGYNVYQSEAHGLPLHLPGQKSPHRDPAPRGPARFLPLPGLPPALPEPPGILAPQPPDVGSSDPLSLVGPSQGRSPSYCS
- EC50 (absence of HSA, read-out: EC50): 3.5 nM
- EC50 [1]: 3.2 nM

B5: 20-[[4-[[(1S)-4-[2-[2-[2-[2-[2-[2-[[(1S)-5-[(2-acetamido]-1-carboxy-pentyl]amino]-2-oxo-ethoxy]ethoxy]ethylamino]-2-oxo-ethoxy]ethoxy]ethylamino]-1-carboxy-4-oxo-butyl]carbamoyl]cyclohexyl]methylamino … (protein)
chain: HPIPDSSPLLQFGGQVRQRYLYTDDAQQTEAHLEIREDGTVGGAADQSPESLLQLKALKPGVIQILGVKTSRFLCQRPDGALYGSLHFDPEACSFRELLLEDGYNVYQSEAHGLPLHLPGQKSPHRDPAPRGPARFLPLPGLPPALPEPPGILAPQPPDVGSSDPLSLVGPSQGRSPSYCS
- EC50 (absence of HSA, read-out: EC50): 4 nM

B6: 16-[[4-[[(1S)-4-[2-[2-[2-[2-[2-[2-[[(1S)-5-[(2-acetamido]-1-carboxy-pentyl]amino]-2-oxo-ethoxy]ethoxy]ethylamino]-2-oxo-ethoxy]ethoxy]ethylamino]-1-carboxy-4-oxo-butyl]carbamoyl]cyclohexyl]methylamino … (protein)
chain: HPIPDSSPLLQFGGQVRQRYLYTDDAQQTEAHLEIREDGTVGGAADQSPESLLQLKALKPGVIQILGVKTSRFLCQRPDGALYGSLHFDPEACSFRELLLEDGYNVYQSEAHGLPLHLPGQKSPHRDPAPRGPARFLPLPGLPPALPEPPGILAPQPPDVGSSDPLSLVGPSQGRSPSYCS
- EC50 (absence of HSA, read-out: EC50): 4 nM
- EC50 [1]: 2.1 nM

B7: (2S)-6-acetamido-2-[[2-[2-[2-[[2-[2-[2-[[(4S)-4-carboxy-4-(16-sulfohexadecanoylamino)butanoyl]amino]ethoxy]ethoxy]acetyl]amino]ethoxy]ethoxy]acetyl]amino]hexadecanoic … (protein)
chain: HPIPDSSPLLQFGGQVRQRYLYTDDAQQTEAHLEIREDGTVGGAADQSPESLLQLKALKPGVIQILGVKTSRFLCQRPDGALYGSLHFDPEACSFRELLLEDGYNVYQSEAHGLPLHLPGQKSPHRDPAPRGPARFLPLPGLPPALPEPPGILAPQPPDVGSSDPLSLVGPSQGRSPSYCS
- EC50 (absence of HSA, read-out: EC50): 4.2 nM
- EC50 [1]: 7.1 nM

B8: 18-[[4-[[(1S)-4-[2-[2-[2-[2-[2-[2-[[(1S)-5-[(2-acetamido]-1-carboxy-pentyl]amino]-2-oxo-ethoxy]ethoxy]ethylamino]-2-oxo-ethoxy]ethoxy]ethylamino]-1-carboxy-4-oxo-butyl]carbamoyl]cyclohexyl]methylamino … (protein)
chain: HPIPDSSPLLQFGGQVRQRYLYTDDAQQTEAHLEIREDGTVGGAADQSPESLLQLKALKPGVIQILGVKTSRFLCQRPDGALYGSLHFDPEACSFRELLLEDGYNVYQSEAHGLPLHLPGQKSPHRDPAPRGPARFLPLPGLPPALPEPPGILAPQPPDVGSSDPLSLVGPSQGRSPSYCS
- EC50 (absence of HSA, read-out: EC50): 4 nM
- EC50 [1]: 14 nM

B9: 20-[[(1S)-4-[2-[2-[2-[2-[2-[2-[[(1S)-5-acetamido-1-carboxy-pentyl]amino]-2-oxo-ethoxy]ethoxy]ethylamino]-2-oxo-ethoxy]ethoxy]ethylamino]-1-carboxy-4-oxo-butyl]amino]-20-oxo-icosanoic … (protein)
chain: HPIPDSSPLLQFGGQVRQRYLYTDDAQQTEAHLEIREDGTVGGAADQSPESLLQLKALKPGVIQILGVKTSRFLCQRPDGALYGSLHFDPEACSFRELLLEDGYNVYQSEAHGLPLHLPGQKSPHRDPAPRGPARFLPLPGLPPALPEPPGILAPQPPDVGSSDPLSLVGPSQGRSPSYCS
- EC50 (absence of HSA, read-out: EC50): 6.1 nM
- EC50 [1]: 52.5 nM
